A value given as a limit tells only on which side of the number the result lay.

Data on 4 substances can be found in patent CN110616192A.

The target of test [1] is 神经丝轻链(NEFL) (human) (UniProt P07196). The test is described as follows: indirect ELISA, antigen coated at 5 μg/ml, antibody diluted 10^4-fold.
For test [2] the target is unchanged. The test is described as follows: indirect ELISA titre, serial two-fold dilution of purified antibody. In general terms: An ELISA detects its analyte on a solid surface through an enzyme-linked reagent.
Test [3] shares this target. The test is described as follows: calculated from the indirect ELISA titre.

UniProt P07196, sequence (P07196 1-360 limits assumed): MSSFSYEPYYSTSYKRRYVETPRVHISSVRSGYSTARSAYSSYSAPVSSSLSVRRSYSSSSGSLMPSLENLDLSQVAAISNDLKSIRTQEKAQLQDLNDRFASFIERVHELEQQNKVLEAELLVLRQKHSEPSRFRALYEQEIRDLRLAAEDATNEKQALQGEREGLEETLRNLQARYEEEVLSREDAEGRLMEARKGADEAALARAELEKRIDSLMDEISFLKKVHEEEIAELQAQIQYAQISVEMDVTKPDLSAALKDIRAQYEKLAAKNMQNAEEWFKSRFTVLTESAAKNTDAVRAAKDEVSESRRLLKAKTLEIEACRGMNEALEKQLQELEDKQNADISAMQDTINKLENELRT

For 抗NEFL单克隆抗体OTI3G2 (antibody), in test [1], the OD450 was greater than 1.5 OD450. The substance also showed a 抗体效价 in test [2] of 512000.
抗人神经丝轻链(NEFL)单克隆抗体OTI11F6 (antibody) had an OD450 in test [1] greater than 1.5 OD450. In test [2], this substance returned a 抗体效价 of 1.02e+06. Further, in test [3], the Ka is 1.4e+09 M⁻¹.
Substance 抗NEFL单克隆抗体OTI2F5 (antibody) yielded an OD450 in test [1] greater than 1.5 OD450. The substance also had a 抗体效价 in test [2] of 1.02e+06.
For the substance 抗NEFL单克隆抗体OTI11F8 (antibody), the OD450 in test [1] was greater than 1.5 OD450. This substance yielded a 抗体效价 in test [2] of 512000.
